Blank lines part the entries; values can stand above or below the binder they belong to.
Columns and labels:
human IL-9 [1] = molecular target: T1, human IL-9 (human, UniProt P15248 19-144); test: cell-based or functional assay
human IL-9 [2] = molecular target: T1, human IL-9; test: BLI (Octet Red 96), mAb captured on anti-hIgG Fc sensor, hIL-9 in solution, 1:1 model
Experimental: (§1) The BLI experiments on the antagonistic antibodies were performed using an Octet Red 96 machine (Sartorius) in kinetics buffer (PBS, 0.1% (w/v) BSA, 0.02% (v/v) Tween20) at 298 K. Anti-hIgG Fc capture (AHC) or anti-mIgG Fc capture sensors (Sartorius) were functionalized with the IL-9 mAbs. […] Non-functionalized tips were used as negative controls in a double referenced setup. After subtracting the control sensorgrams, the resulting data was fitted with a 1:1 binding model. Data analysis was performed using the Data Analysis software 9.0.0.14 (Sartorius) (Table 6).

human IL-9 [3] = molecular target: T1, human IL-9; test: cell-based or functional assay; remark: listed apart in the source
mouse IL-9 [4] = molecular target: T2, mouse IL-9 (mouse, UniProt P15247 19-144); test: SPR (Biacore 3000), IL-9 immobilised on CM-5 chip, Fab periplasmic extract injected
T2 construct: Recombinant mouse IL-9 (R&D Systems) in SPR and BLI; baculovirus supernatant in the bioassay; also called mIL-9; mIL9
T2 sequence: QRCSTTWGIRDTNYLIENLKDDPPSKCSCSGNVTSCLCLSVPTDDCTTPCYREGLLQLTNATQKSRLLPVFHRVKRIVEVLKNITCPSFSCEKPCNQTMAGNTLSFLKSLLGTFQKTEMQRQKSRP
Experimental: (§2) The binding of Fabs (periplasmic extract) to their respective mouse or human targets was determined by surface plasmon resonance (SPR) using a Biacore 3000 apparatus (GE Healthcare). IL-9 was immobilized on a carboxymethyl dextran sensor chip (CM-5) using amine coupling in sodium acetate buffer (GE Healthcare). The Fab-containing periplasmic extracts were loaded with a flow rate of […]. The Fab binding and off-rates were measured over a 90 second period (Table 5). […] Furthermore, the ability of the antibodies to compete for human or mouse IL-9 binding to human or rat IL-9R was tested also in a Biacore 3000. For this assay, human or rat IL-9R was coated at high density on a carboxymethyl dextran sensor chip (CM-5). Then, a premade mixture of periplasmic extract (Fab) and IL-9 was injected.

human IL-9 [5] = molecular target: T1, human IL-9; test: as above
Experimental: as §2

mouse IL-9 [6] = molecular target: T2, mouse IL-9; test: cell-based or functional assay
mouse IL-9 [7] = molecular target: T2, mouse IL-9; test: BLI (Octet Red 96), mAb captured on anti-mIgG Fc sensor, mIL-9 in solution, 1:1 model
Experimental: as §1

human IL-9 [8] = molecular target: T1, human IL-9; test: SPR screening of Fab periplasmic extracts
Experimental: as §2

T1 sequence (P15248 19-144 limits assumed): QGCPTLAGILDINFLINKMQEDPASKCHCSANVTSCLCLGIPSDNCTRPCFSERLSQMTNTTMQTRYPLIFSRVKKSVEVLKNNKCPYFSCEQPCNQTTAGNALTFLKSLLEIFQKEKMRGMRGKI

Bioassay IC50 [pM]: inhibition of human IL-9-induced Baf3hIL9RA6 cell proliferation (human IL-9 [1]): 30.9 pM | Kd (human IL-9 [2]): 0.24 nM | IC50, inhibition of human IL-9-induced Baf3hIL9RA6 cell proliferation (hexosaminidase, OD405) (human IL-9 [3]): 0.0609 nM
B1: anti-hIL-9 antibody 6E2 (full IgG) (antibody, V domains shown)
VH: QVQLVESGGGLVQPGGSLRLSCAASGFTFSSSAMGWVRQAPGKGLEWVSTIVNSITTTYYADSVKGRFTISTDNAKNTLYLQIDSLKSEDTAVYYCGSLAGPYYDYWGQGTQVTVSS
VL: LSSALTQPSTVSVSLGQTARITCQGGSLGSYDAHWYQQKPGQAPVLVIHDNNSRPSGIPERFTGSRSGETATLTISGAQTEDEADYYCQSYDSTSDALVFGGGTQLTVL
notes: also called mAb 6E2; 9MP6E2

binding result (mouse IL-9 [4]): no binding
B2: Fab 6E2 (Fab, V domains shown)
VH: QVQLVESGGGLVQPGGSLRLSCAASGFTFSSSAMGWVRQAPGKGLEWVSTIVNSITTTYYADSVKGRFTISTDNAKNTLYLQIDSLKSEDTAVYYCGSLAGPYYDYWGQGTQVTVSS
VL: LSSALTQPSTVSVSLGQTARITCQGGSLGSYDAHWYQQKPGQAPVLVIHDNNSRPSGIPERFTGSRSGETATLTISGAQTEDEADYYCQSYDSTSDALVFGGGTQLTVL
notes: it is treated as the same molecule; also called 9MP6E2

Bioassay IC50 [pM]: inhibition of human IL-9-induced Baf3hIL9RA6 cell proliferation (human IL-9 [1]): 2110 pM | Kd (human IL-9 [2]): 1.81 nM | IC50, inhibition of human IL-9-induced Baf3hIL9RA6 cell proliferation (hexosaminidase, OD405) (human IL-9 [3]): 6.3 nM
B3: anti-hIL-9 antibody 7D6 (full IgG) (antibody, V domains shown)
VH: QLQLVESGPGLVKPSQTLSLTCTVSGGSITTGYYAWSWIRQPPGKGLEWMGFIARDGSTSYSPSLKSRTSISRDTSKNQFSLQLSSVTPEDTAVYYCARAGEGRSWYPGYYYGMDYWGKGTLVTVSS
VL: AQAVVTQEPSLSVSPGGTVTLTCGLSSGSVTSSNYPGWYQQTPGQAPRVLIYNTNSRHSGVPSRYSGFISGNKAALTITGAEPEDEADYYCHLHKGSTGVFGGGTHLTVL
notes: also called 9MP7D6

binding result (mouse IL-9 [4]): no binding
B4: Fab 7D6 (Fab, V domains shown)
VH: QLQLVESGPGLVKPSQTLSLTCTVSGGSITTGYYAWSWIRQPPGKGLEWMGFIARDGSTSYSPSLKSRTSISRDTSKNQFSLQLSSVTPEDTAVYYCARAGEGRSWYPGYYYGMDYWGKGTLVTVSS
VL: AQAVVTQEPSLSVSPGGTVTLTCGLSSGSVTSSNYPGWYQQTPGQAPRVLIYNTNSRHSGVPSRYSGFISGNKAALTITGAEPEDEADYYCHLHKGSTGVFGGGTHLTVL
notes: it is treated as the same molecule; also called 9MP7D6

koff (human IL-9 [5]): 0.00013 s⁻¹ | binding result (mouse IL-9 [4]): no binding
B5: Fab 7A4 (Fab, V domains shown)
VH: EVQLVESGPGLVKPSQTLSLTCTVSGGSITTGYYAWSWIRQPPGKGLEWMGFIARDGSTSYSPSLKSRTSISRDTSKNQFSLQLSSVTPEDTAVYYCARAGEGRSWYPGYYYGMDYWGKGTLVTVSS
VL: AQAVVTQEPSLSVSPGGTVTLTCGLSSGSVTSSNYPAWYQQTPGQAPRVLIYNTNSRHSGVPSRYSGFISGNKAALTITGAEPEDEADYYCHLHEGSTGVFGGGTHLNVL
notes: Llama-derived Fab (VH-CH1 and VL-CL) from E. coli periplasmic extract; also called 9MP7A4

koff (human IL-9 [5]): 0.00044 s⁻¹ | binding result (mouse IL-9 [4]): no binding
B6: Fab 6C4 (Fab, V domains shown)
VH: QVQLVESGGGLVQPGGSLRLSCAASGFTFDDYAMSWVRQAPGKGLEWVSAISWNGGSTYHAESMKGRFTISRDNAKNTLYLQMNSLKSEDTAVYYCAKNLYGSSWYEYDYWGQGTQVTVSS
VL: LSYELTQPSAVSTSLGQTARVTCQGDILESYGASWYQQKPGQAPVLVIYGDDSRPSGIPERFSGSSSGGTATLTISGAQAEDEADYYCLSADSSDYNAVFGGGTHLTVL
notes: Llama-derived Fab (VH-CH1 and VL-CL) from E. coli periplasmic extract; also called 9MP6C4

Bioassay IC50 [pM]: neutralisation of mouse IL-9 on TS1 cells (hexosaminidase activity) (mouse IL-9 [6]): 20.1 pM
B7: anti-mIL-9 antibody 35D8, new batch (mIgG1-N297A) (antibody, V domains shown)
VH: QVQLVESGPGLVQPSQTLSLTCTVSGGSITTSYYDWSWIRQPPGKGLEWMGAIAYSGNAYYSPSLKSRTSISRDTSKNQFTLQLSSVTPEDTAVYYCAREDHYSDTHGWNDYWGQGTQVTVSS
VL: SSALTQPSAVSVSLGQTARITCQGGSIGNFGATWYQQKPGQAPVLLSLGEHSRPSGIPERFSGSKSGGTATLTISGAQAEDEADYYCQSFDYIGNDHVFGGGTHLTVL

Kd (mouse IL-9 [7]): 0.11 nM | koff (mouse IL-9 [7]): 0.000159 s⁻¹ | kon (mouse IL-9 [7]): 1.39e+06 M⁻¹ s⁻¹
B8: anti-mIL-9 antibody 35D8 (full mIgG2a) (antibody, V domains shown)
VH: QVQLVESGPGLVQPSQTLSLTCTVSGGSITTSYYDWSWIRQPPGKGLEWMGAIAYSGNAYYSPSLKSRTSISRDTSKNQFTLQLSSVTPEDTAVYYCAREDHYSDTHGWNDYWGQGTQVTVSS
VL: SSALTQPSAVSVSLGQTARITCQGGSIGNFGATWYQQKPGQAPVLLSLGEHSRPSGIPERFSGSKSGGTATLTISGAQAEDEADYYCQSFDYIGNDHVFGGGTHLTVL
notes: the BLI values are placed here; also called mouse IL-9 mAb

binding result (human IL-9 [5]): no binding | koff (mouse IL-9 [4]): 0.00047 s⁻¹
B9: Fab 35D8 (Fab, V domains shown)
VH: QVQLVESGPGLVQPSQTLSLTCTVSGGSITTSYYDWSWIRQPPGKGLEWMGAIAYSGNAYYSPSLKSRTSISRDTSKNQFTLQLSSVTPEDTAVYYCAREDHYSDTHGWNDYWGQGTQVTVSS
VL: SSALTQPSAVSVSLGQTARITCQGGSIGNFGATWYQQKPGQAPVLLSLGEHSRPSGIPERFSGSKSGGTATLTISGAQAEDEADYYCQSFDYIGNDHVFGGGTHLTVL
notes: it is treated as the same molecule

binding result (human IL-9 [8]): binds
B10: Fab 8G3 (Fab, V domains shown)
VH: EVQLVESGPGLVKPSQTLSLTCTVSGDSITTSYYGWGWIRQPPGKGLEWMGVIFSDGGTTYSPSLKSRTSISRDTSKSQFSLQLSSVTPEDTAVYYCARVQYYSGSYSYPTHIYDYWSQGTQVTVSS
VL: AQAVVTQEPSLSVSPGGTVTLTCGLSSGSVTTSNYPGWFQQTPGQAPRTLIYSTSSRHSGVPSRFSGSMSGNKAALTITGAQPEDEADYYCALHMGSSTVFGGGTHLTVL
notes: Llama-derived Fab (VH-CH1 and VL-CL) from E. coli periplasmic extract; also called 9MP8G3

koff (human IL-9 [5]): 0.00067 s⁻¹ | binding result (mouse IL-9 [4]): no binding
B11: Fab 8C3 (Fab, V domains shown)
VH: EVQVQESGPGLVKPSQTLSLTCTVSGGSITTSSYGWMWIRQPPGKGLEWMGVIFSDGSTAYNPSLRSRTSISRDTSKNQFSLQLSSVTPEDTAVYYCARSFVRGVVIGELDYGMDYWGKGTLVTVSS
VL: AQAVVTQEPSLSVSPGGTVTLTCGLSSGSVTTSNYPGWFQQTPGQAPRTLIYSTSSRHSGVPSRFSGSMSGNKAALTITGAQPEDEADYYCALHMGSSTVFGGGTHLTVL
notes: Llama-derived Fab (VH-CH1 and VL-CL) from E. coli periplasmic extract; also called 9MP8C3

Bioassay IC50 [pM]: inhibition of human IL-9-induced Baf3hIL9RA6 cell proliferation (human IL-9 [1]): 58.4 pM | Kd (human IL-9 [2]): 0.13 nM | IC50, inhibition of human IL-9-induced Baf3hIL9RA6 cell proliferation (hexosaminidase, OD405) (human IL-9 [3]): 0.115 nM
B12: anti-hIL-9 antibody 6D3 (full IgG) (antibody, V domains shown)
VH: QVQVQESGPGLVKPSQTLSLTCTVSGGPITTRYYAWSWIRQPPGKGLEWMGLIDYDGSVYYSPSLKSRTSISRDTAKNQFSLQLSSVTPEDTAVYYCARVSAATLFLDYWGQGTQVTVSS
VL: LSYELTQPSALSVTLGQTAKITCQGGSLGSSYAHWYQQKPDQAPILVIYDDDSRPSGIPERFSGSSSGGTATLTISGAQAEDEGDYYCQSYDSSANFVFGGGTKLTVL
notes: also called mAb 6D3; 9MP6D3

binding result (mouse IL-9 [4]): no binding
B13: Fab 6D3 (Fab, V domains shown)
VH: QVQVQESGPGLVKPSQTLSLTCTVSGGPITTRYYAWSWIRQPPGKGLEWMGLIDYDGSVYYSPSLKSRTSISRDTAKNQFSLQLSSVTPEDTAVYYCARVSAATLFLDYWGQGTQVTVSS
VL: LSYELTQPSALSVTLGQTAKITCQGGSLGSSYAHWYQQKPDQAPILVIYDDDSRPSGIPERFSGSSSGGTATLTISGAQAEDEGDYYCQSYDSSANFVFGGGTKLTVL
notes: it is treated as the same molecule; also called 9MP6D3

binding result (human IL-9 [8]): binds
B14: Fab 6F2 (Fab, V domains shown)
VH: EVQLQESGPGLVKPSQTVSLTCTVSGGSITTRYYGWSWIRQPPGKGLEWMGVVYSDGSTSYSPSLESRTSISRDTSKNQFSLQLSFVTPEDTAVYYCARDRAEARLRVGPTGGNDYWGQGTQVTVSS
VL: AQAVVTQEPSLSVSPGGTVTLTCGLSSESVTSSNYPDWYQQTPGQVPRLLIYTTNSRHSGVPSRFSGSISGNKAALTITGAQPEDEADYYCGLYMGSTAVFGGGTKLTVL
notes: Llama-derived Fab (VH-CH1 and VL-CL) from E. coli periplasmic extract; also called 9MP6F2

From patent US20240109960A1 (ARGENX, published 2024)
